Measurements: US20220340655A1 (OPSIDIO, published 2022)

Molecular target: human stem cell factor isoform SCF248 (human, UniProt P21583 26-273)
Experiment: flow cytometry on S1/S14 hSCF248 cells; printed as BC50 (50% maximal binding)

Sequence of human stem cell factor isoform SCF248 (P21583 26-189): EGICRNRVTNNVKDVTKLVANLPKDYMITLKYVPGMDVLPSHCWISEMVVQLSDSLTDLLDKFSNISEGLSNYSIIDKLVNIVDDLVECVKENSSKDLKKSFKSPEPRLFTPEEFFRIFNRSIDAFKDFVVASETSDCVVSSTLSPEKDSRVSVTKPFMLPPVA

- EC50: 0.9 µg/mL
B1: 5H10 VH3/VK3 (antibody, human IgG4, V domains shown)
VH: QVQLVQSGAEVKKPGSSVKVSCKSSGYAFSSYWMNWVRQRPGQGLEWIGQIYPGDGDTHYNGKFKGKATLTADKSTSTAYMELSSLRSEDTAVYFCSSSNWVGSYWGQGTLVTVSS
VL: DVVMTQSPLSLPVTLGQPASISCKSSQSLLESDGKTYLNWLQQRPGQSPRRLIYLVSRLDSGVPDRFSGSGSGTDFTLKISRVEAEDVGVYYCWQGTHLPQTFGGGTKVEIK
notes: Humanized; only variable regions are tied to the name
